Results as given in publication doi:10.1101/2024.06.01.596940 (bioRxiv, 2024).

T1: mouse GPR182 (untagged), stably expressed on HEK293T cells (mouse, UniProt P43142 1-398)
T1 sequence: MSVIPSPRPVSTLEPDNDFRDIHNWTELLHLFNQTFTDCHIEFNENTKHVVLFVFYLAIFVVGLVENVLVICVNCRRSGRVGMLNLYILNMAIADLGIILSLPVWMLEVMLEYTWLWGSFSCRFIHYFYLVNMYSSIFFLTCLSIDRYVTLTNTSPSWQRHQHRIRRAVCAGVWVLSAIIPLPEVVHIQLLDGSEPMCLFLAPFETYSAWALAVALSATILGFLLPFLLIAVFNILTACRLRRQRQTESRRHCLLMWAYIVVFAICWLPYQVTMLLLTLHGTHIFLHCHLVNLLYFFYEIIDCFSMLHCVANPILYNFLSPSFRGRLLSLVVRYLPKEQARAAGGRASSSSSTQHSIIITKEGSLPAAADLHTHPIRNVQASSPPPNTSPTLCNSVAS

B1: mouse CXCL17 (ligand)
chain: SPNPGVARSHGDQHLAPRRWLLEGGQECECKDWFLQAPKRKATAVLGPPRKQCPCDHVKGREKKNRHQKHHRKSQRPSRACQQFLKRCHLASFALPL
B2: mouse GPR15L (ligand)
chain: RRHPAKSLKLRRCCHLSPRSKLTTWKGNHTRPCRLCRNKLPVKSWVVPGALPQI
B3: viral macrophage inflammatory protein II (ligand)
chain: GDTLGASWHRPDKCCLGYQKRPLPQVLLSSWYPTSQLCSKPGVIFLTKRGRQVCADKSKDWVKKLMQQLPVTAR
B4: human CCL19 (ligand)
chain: GTNDAEDCCLSVTQKPIPGYIVRNFHYLLIKDGCRVPAVVFTTLRGRQLCAPPDQPWVERIIQRLQRTSAKMKRRSS
B5: human CXCL17 (ligand)
chain: SSLNPGVARGHRDRGQASRRWLQEGGQECECKDWFLRAPRRKFMTVSGLPKKQCPCDHFKGNVKKTRHQRHHRKPNKHSRACQQFLKQCQLRSFALPL
B6: human CCL25 (ligand)
chain: QGVFEDCCLAYHYPIGWAVLRRAWTYRIQEVSGSCNLPAAIFYLPKRHRKVCGNPKSREVQRAMKLLDARNKVFAKLHHNTQTFQAGPHAVKKLSSGNSKLSSSKFSNPISSSKRNVSLLISANSGL
B7: human CXCL13 (ligand)
chain: VLEVYYTSLRCRCVQESSVFIPRRFIDRIQILPRGNGCPRKEIIVWKKNKSIVCVDPQAEWIQRMMEVLRKRSSSTLPVPVFKRKIP
B8: human GPR15L (ligand)
chain: KRRPAKAWSGRRTRLCCHRVPSPNSTNLKGHHVRLCKPCKLEPEPRLWVVPGALPQV

Legend:
[1] = molecular target: T1, mouse GPR182 (untagged), stably …; test: flow cytometry on cells
[2] = molecular target: human GPR182 (untagged), stably expressed on HEK293T cells (human, UniProt O15218 1-404); test: flow cytometry on cells
Sequence of human GPR182 (untagged), stably expressed on HEK293T cells (O15218 whole entry): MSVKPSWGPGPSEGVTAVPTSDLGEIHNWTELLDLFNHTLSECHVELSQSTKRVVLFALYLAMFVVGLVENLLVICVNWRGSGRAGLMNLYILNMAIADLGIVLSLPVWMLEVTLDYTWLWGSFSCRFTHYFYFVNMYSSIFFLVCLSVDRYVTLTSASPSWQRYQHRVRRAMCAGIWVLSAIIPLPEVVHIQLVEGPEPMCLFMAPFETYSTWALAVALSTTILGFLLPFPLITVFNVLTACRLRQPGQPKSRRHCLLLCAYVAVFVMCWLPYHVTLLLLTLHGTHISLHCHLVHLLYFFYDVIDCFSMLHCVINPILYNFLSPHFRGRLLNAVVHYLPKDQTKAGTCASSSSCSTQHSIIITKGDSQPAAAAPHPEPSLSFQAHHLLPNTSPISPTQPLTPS

| Binder | pIC50 [1] | pIC50 [2] |
| --- | --- | --- |
| B1 | 5.61 |  |
| B2 | 7.06 |  |
| B3 | 6.13 | 7.87 |
| B4 |  | 7.21 |
| B5 |  | 7.89 |
| B6 |  | 7.17 |
| B7 |  | 7.67 |
| B8 |  | 8 |
